The experiment concerns the target Bartonella henselae Nudix hydrolase BH02020 (Bh-MutT) (Bartonella henselae strain Houston-1). The experiment is described as follows: SEC; Superdex75 size-exclusion column, retention time 68 min; 21-residue N-terminal tag present. A general note: SEC sorts molecules by how far they enter the pores of the column.

For 1 substance, stoichiometry N results are on record in PMC3169405.

As usually defined, the stoichiometry N is the number of molecules, sites or subunits per partner or assembly. Take “Bartonella henselae Nudix hydrolase BH02020 (Bh-MutT) (enzyme)”: the stoichiometry N was 2.
